This is an account of results in patent publication US20240100133A1, “ENZYMATICALLY INACTIVE GRANZYME A AND USES THEREFORE” (Saint Louis University, priority 2022, published 2024).

Like-named read-outs stand apart in the source and are kept apart here.

Assay [1] in a line: BLT esterase assay for GzmA enzyme activity. It counts as biochemical. The note with it: 120 pM protein; substrate BLT. As to the method: BLT esterase protocol for measuring GzmA enzyme activity. BLT esterase assays and calculation of specific activity were adapted from (Rasi et al., 2021; Rasi et al., 2022). Substrate Z-L-Lys-SBz1 hydrochloride (Sigma #C3647-25MG) was added to 96 well plates with a serial dilution between 19.5-2,500 μM. Assay buffer consisted of 50 mM Tris, 154 mM NaCl, pH 7.5 in presence of […] (5,5-dithio-bis-(2-nitrobenzoic acid) (DTNB) chromophore. 120 pM of protein was added to each well and substrate hydrolysis was quantified by measuring the absorbance at 405 nm.

Assay [2] relates to Connaught BCG within primary CD14+ human monocytes. The assay is classed as cell-based. To be noted: for inhibition of intracellular mycobacterial replication (MGIA): 72 h.
Assay [3] concerns Mtb H37Rv within primary CD14+ human monocytes. It counts as cell-based, Mycobacterium tuberculosis. To be noted: 200 nM GzmA, Mtb MOI 1, human monocytes.
The subject of assay [4] is mycobacteria within iMac-WT mouse cells. The assay is classed as cell-based. To be noted: human GzmA on mouse iMac-WT cells.
The next assay has as its system mycobacteria BCG-GFP. The assay is classed as binding.
Assay [5] concerns LAMP1 (phagolysosome fusion). Description: Confocal microscopy colocalization of BCG-GFP and LAMP1. It counts as cell-based, human. To be noted: compared with untreated controls. Here is the method: Confocal microscopy and Stimulation Emission Depletion (STED) experiments. For confocal and STED microscopy experiments, cells were incubated on coverslips pre-treated with Cell-Tak (Corning #354240). At the time of fixation, cells were washed twice with 1×RT PBS, and then fixed in 4% paraformaldehyde for 15 min at 37° C. Slides were washed thrice for 5 min at RT with 1×PBS, and then blocked with 5% donkey serum (Cat. #017-000-121, Jackson ImmunoResearch, West Grove, PA) with 0.25% Tween-20 (Cat. #P9416, Sigma, St. Louis, MO) and True Stain Fc blocker (added only during blocking step) (Cat. #426101, Biolegend, San Diego, CA). Cells were then incubated overnight at 4° C. with primary antibody anti-GzmA (Cat. #MAB29051, R&D, Minneapolis, MN) at 12.5 μg/mL in blocking buffer, anti-PDIA1 (Cat. #MAB4236, R&D, Minneapolis, MN) at 12.5 μg/mL in blocking buffer, anti-LAMP1 at 12.5 ug/ml (Cat. #MAB4800, R&D, Minneapolis, MN), or anti-ATPSH (Cat. #ab110275, Abcam, Cambridge, UK) at 5 μg/mL in blocking buffer. To remove unbound antibody, cells were washed four times with 1×PBS at RT, and then incubated in the dark for 2 h with secondary antibody conjugated with Alexa Fluor 594 (Cat. #715-545-150, Jackson Immunoresearch, West Grove, PA) at 1:100 or Atto 647N (Cat. #ASR3248, Abcepta, San Diego, Ca) at 1:100. […]

The target in a further assay is T1, CD14 (Homo sapiens, UniProt P08571).
T1 sequence (P08571 20-345): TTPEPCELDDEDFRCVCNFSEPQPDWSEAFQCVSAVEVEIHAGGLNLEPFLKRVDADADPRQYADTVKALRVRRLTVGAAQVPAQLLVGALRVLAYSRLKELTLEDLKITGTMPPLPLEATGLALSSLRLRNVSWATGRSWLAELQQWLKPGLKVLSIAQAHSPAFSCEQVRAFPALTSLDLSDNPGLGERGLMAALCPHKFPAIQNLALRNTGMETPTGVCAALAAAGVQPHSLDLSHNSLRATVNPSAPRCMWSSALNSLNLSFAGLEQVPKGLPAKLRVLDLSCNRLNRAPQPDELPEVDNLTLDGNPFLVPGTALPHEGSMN
In words: Immunoprecipitation with anti-GzmA, probed for CD14. The note with it: human monocyte lysates, infected and uninfected cells.

The target in a further assay is TLR4 (Homo sapiens, UniProt O00206). In words: Immunoprecipitation with anti-GzmA, probed for TLR4. The note with it: human monocyte lysates, infected and uninfected cells.
Sequence of TLR4 (O00206 24-839): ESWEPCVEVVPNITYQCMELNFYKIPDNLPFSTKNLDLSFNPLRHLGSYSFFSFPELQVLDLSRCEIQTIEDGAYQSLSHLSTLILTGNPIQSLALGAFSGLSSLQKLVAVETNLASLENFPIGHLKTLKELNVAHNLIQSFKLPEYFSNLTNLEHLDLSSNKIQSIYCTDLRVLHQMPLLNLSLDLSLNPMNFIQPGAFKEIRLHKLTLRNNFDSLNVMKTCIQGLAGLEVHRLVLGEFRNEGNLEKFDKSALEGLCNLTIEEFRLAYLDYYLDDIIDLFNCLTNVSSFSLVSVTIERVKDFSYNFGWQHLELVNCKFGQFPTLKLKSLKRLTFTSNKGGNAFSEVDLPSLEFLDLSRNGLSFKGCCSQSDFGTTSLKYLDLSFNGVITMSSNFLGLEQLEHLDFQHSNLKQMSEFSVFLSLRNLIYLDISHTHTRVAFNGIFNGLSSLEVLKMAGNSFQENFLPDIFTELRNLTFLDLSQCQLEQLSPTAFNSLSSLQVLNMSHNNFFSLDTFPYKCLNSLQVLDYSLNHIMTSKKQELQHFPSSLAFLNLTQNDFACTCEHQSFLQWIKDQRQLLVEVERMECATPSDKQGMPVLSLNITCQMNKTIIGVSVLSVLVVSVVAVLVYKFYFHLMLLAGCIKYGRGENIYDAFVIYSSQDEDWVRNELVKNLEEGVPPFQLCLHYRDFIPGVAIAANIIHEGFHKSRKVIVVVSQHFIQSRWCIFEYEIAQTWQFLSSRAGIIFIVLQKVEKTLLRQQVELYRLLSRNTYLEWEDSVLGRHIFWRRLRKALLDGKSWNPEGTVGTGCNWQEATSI

B1: GzmA-C93S: Granzyme A variant with cysteine 93 substituted with serine; forms only monomers, retains enzymatic activity (protein)
chain: IIGGNEVTPHSRPYMVLLSLDRKTICAGALIAKDWVLTAAHCNLNKRSQVILGAHSITREEPTKQIMLVKKEFPYPSYDPATREGDLKLLQLMEKAKINKYVTILHLPKKGDDVKPGTMCQVAGWGRTHNSASWSDTLREVNITIIDRKVCNDRNHYNFNPVIGMNMVCAGSLRGGRDSCNGDSGSPLLCEGVFRGVTSFGLENKCGDPRGPGVYILLSKKHLNWIIMTIKGAV
modifications: left off: small tags and cut ends
B1: the “enzymatic (esterase) activity, cleavage of BLT” value in assay [1] is given as “cleaved similar amounts of BLT as GzmA-WT”. Also, in assay [2], the “effect of monomeric GzmA on protective effects of GzmA-WT (mixing experiment)” value was “partially inhibit the protective effects of GzmA-WT”, the “intracellular replication of pre-opsonized mycobacteria (excess protein removed)” value is “cannot” and the “inhibition of intracellular mycobacterial replication (MGIA)” value is given as “loses its inhibitory activity”. Further, the “inhibition of intracellular Mtb (MGIA)” value in assay [3] is recorded as “did not”. In assay [4], the “inhibition of mycobacterial growth in iMac-WT cells” value is listed as “did not”. Also, the binding to mycobacteria result with mycobacteria BCG-GFP is listed as “able to bind mycobacteria”. The “colocalization between LAMP1 and BCG-GFP” value in assay [5] is “fails to direct mycobacteria into the phagolysosome”. Moreover, the “binding to CD14 (immunoprecipitation)” value in the assay with CD14 is reported as “does not”. Moreover, the “binding to TLR4 (immunoprecipitation)” value in the assay with TLR4 is listed as “does not”.

B2: GzmA-S195A (protein)
chain: IIGGNEVTPHSRPYMVLLSLDRKTICAGALIAKDWVLTAAHCNLNKRSQVILGAHSITREEPTKQIMLVKKEFPYPCYDPATREGDLKLLQLMEKAKINKYVTILHLPKKGDDVKPGTMCQVAGWGRTHNSASWSDTLREVNITIIDRKVCNDRNHYNFNPVIGMNMVCAGSLRGGRDSCNGDAGSPLLCEGVFRGVTSFGLENKCGDPRGPGVYILLSKKHLNWIIMTIKGAV
modifications: left off: small tags and cut ends
Turning to B2, in assay [1], the “enzymatic (esterase) activity, cleavage of BLT” value was “loses its enzymatic activity”. Besides, in assay [2], the “GzmA inhibitory activity after CD14 neutralization (MGIA)” value is given as “lost their inhibitory activity”, the “GzmA inhibitory activity after TLR2 neutralization (MGIA)” value was “does not reverse” and the “inhibition of intracellular mycobacterial replication (MGIA)” value is listed as “inhibits the intracellular replication of mycobacteria”. Besides, in assay [3], the “inhibition of intracellular Mtb (MGIA)” value was “inhibited Mtb”. For the same molecule, in assay [3] (listed as recombinant enzymatically inactive GzmA), the “inhibition of intracellular Mtb (MGIA)” value is given as “very potent at protecting against Mtb intracellular infection”. For the same molecule, the “inhibition of mycobacterial growth in iMac-WT cells” value in assay [4] is “modestly inhibit mycobacterial growth”. Besides, the binding to mycobacteria entry in the assay with mycobacteria BCG-GFP is on record as “bound mycobacteria”.
